Reference: publication PMC6317994 (Cell reports, 2018)

Target: T1, Flag-tagged N-terminal domain of TET2 (residues 1–1127) (human, UniProt Q6N021 1-1127)
T1 sequence: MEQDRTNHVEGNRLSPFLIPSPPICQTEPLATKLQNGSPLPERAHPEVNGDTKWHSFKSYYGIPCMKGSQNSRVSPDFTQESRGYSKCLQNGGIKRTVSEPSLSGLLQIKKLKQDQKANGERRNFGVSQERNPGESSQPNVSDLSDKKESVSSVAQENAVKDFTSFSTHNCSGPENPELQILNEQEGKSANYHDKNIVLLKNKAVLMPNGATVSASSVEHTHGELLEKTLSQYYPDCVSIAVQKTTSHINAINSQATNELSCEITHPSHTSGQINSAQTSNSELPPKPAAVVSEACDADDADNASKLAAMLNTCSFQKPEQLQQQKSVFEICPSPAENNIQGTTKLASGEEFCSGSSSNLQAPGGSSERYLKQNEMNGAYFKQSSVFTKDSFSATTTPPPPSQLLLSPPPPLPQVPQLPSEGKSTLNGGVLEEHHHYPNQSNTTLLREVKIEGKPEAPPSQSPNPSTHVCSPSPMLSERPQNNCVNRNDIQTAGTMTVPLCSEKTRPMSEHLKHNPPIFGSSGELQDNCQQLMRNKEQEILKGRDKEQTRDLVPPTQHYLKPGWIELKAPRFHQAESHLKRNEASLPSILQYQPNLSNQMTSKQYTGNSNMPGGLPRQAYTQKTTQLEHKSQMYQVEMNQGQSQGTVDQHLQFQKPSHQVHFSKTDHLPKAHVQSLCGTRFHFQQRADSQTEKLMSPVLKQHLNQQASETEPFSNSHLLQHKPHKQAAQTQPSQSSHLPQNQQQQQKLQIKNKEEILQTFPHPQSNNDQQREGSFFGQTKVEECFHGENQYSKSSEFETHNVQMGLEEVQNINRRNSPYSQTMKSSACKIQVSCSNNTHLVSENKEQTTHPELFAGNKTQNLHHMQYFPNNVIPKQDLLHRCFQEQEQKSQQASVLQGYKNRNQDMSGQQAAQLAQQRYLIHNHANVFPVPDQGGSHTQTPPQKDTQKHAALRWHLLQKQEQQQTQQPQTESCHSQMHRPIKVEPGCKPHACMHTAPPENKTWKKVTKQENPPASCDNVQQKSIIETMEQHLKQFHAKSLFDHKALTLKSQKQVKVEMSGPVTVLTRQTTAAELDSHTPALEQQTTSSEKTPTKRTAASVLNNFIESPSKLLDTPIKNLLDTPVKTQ
Assay: pull-down

B1: SNIP1 purified from E. coli (GST tag removed) (natural protein)
chain: MKAVKSERERGSRRRHRDGDVVLPAGVVVKQERLSPEVAPPAHRRPDHSGGSPSPPTSEPARSGHRGNRARGVSRSPPKKKNKASGRRSKSPRSKRNRSPHHSTVKVKQEREDHPRRGREDRQHREPSEQEHRRARNSDRDRHRGHSHQRRTSNERPGSGQGQGRDRDTQNLQAQEEEREFYNARRREHRQRNDVGGGGSESQELVPRPGGNNKEKEVPAKEKPSFELSGALLEDTNTFRGVVIKYSEPPEARIPKKRWRLYPFKNDEVLPVMYIHRQSAYLLGRHRRIADIPIDHPSCSKQHAVFQYRLVEYTRADGTVGRRVKPYIIDLGSGNGTFLNNKRIEPQRYYELKEKDVLKFGFSSREYVLLHESSDTSEIDRKDDEDEEEEEEVSDS
B1: binds.
